Test results taken from US20210340217A1, “NOVEL PEPTIDES AND COMBINATION OF PEPTIDES FOR USE IN IMMUNOTHERAPY AGAINST OVARIAN CANCER AND OTHER CANCERS” (Immatics Biotechnologies GmbH, priority 2017, published 2021).

How the values were obtained:
[1] = biological target: HLA-A*03:01 (Homo sapiens, UniProt P04439); assay: MHC binding assay (UV-ligand exchange, beta2m ELISA); settings: peptide exchange yield
How it was run: (§1)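 Peptide–MHC complexes formed by UV-induced exchange of a UV-cleavable peptide for the test peptide. Exchange yield measured by streptavidin-capture ELISA detecting β2m (HRP anti-β2m, TMB, A450) on 100-fold diluted samples. Quantified against refolded HLA-A*02:01/MLA-001 standards (15-500 ng/ml).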

[2] = biological target: HLA-B*44:02 (Homo sapiens, UniProt P01889, A223V/A65T/A93T/A95T/D201E/D98Y/E176V/E187L/E204Q/E69K/G107R/H137Y/K202T/L105A/L119I/N104T/N87E/Q56L/Q94N/R106L/R155S/R180D/S101N/S121R/S35A/S48T/T118I/V36M/W191S/Y140D/Y91S); assay: as above; settings: peptide exchange yield
How it was run: as §1

Peptide exchange [1]	Peptide exchange [2]	Substance
++++ (>75% = ++++)	–	20 (RMASPVNVK; listed as Homo sapiens) [compound 20]
+++ (>50 = +++)	–	21 (AVRKPIVLK; listed as Homo sapiens) [compound 21]
++ (>20% = ++)	–	22 (SLKERNPLK; listed as Homo sapiens) [compound 22]
+++ (>50 = +++)	–	23 (GMMKGGIRK; listed as Homo sapiens) [compound 23]
+++ (>50 = +++)	–	24 (SMYYPLQLK; listed as Homo sapiens) [compound 24]
++ (>20% = ++)	–	25 (GTSPPSVEK; listed as Homo sapiens) [compound 25]
++ (>20% = ++)	–	26 (RISEYLLEK; listed as Homo sapiens) [compound 26]
+++ (>50 = +++)	–	27 (VLYGPAGLGK; listed as Homo sapiens) [compound 27]
+++ (>50 = +++)	–	28 (KTYETNLEIKK; listed as Homo sapiens) [compound 28]
++ (>20% = ++)	–	30 (ALEVAHRLK; listed as Homo sapiens) [compound 30]
+++ (>50 = +++)	–	83 (GTYAHTVNR; listed as Homo sapiens) [compound 83]
++ (>20% = ++)	–	84 (KLQPAQTAAK; listed as Homo sapiens) [compound 84]
++ (>20% = ++)	–	85 (VLLGSLFSRK; listed as Homo sapiens) [compound 85]
++ (>20% = ++)	–	86 (VVLLGSLFSRK; listed as Homo sapiens) [compound 86]
++ (>20% = ++)	–	87 (AVAPPTPASK; listed as Homo sapiens) [compound 87]
+++ (>50 = +++)	–	88 (VVHAVFALK; listed as Homo sapiens) [compound 88]
++ (>20% = ++)	–	89 (RVAELLLLH; listed as Homo sapiens) [compound 89]

Peptide exchange [1]	Peptide exchange [2]	Substance
+++ (>50 = +++)	–	90 (KVAGERYVYK; listed as Homo sapiens) [compound 90]
++ (>20% = ++)	–	91 (RSLRYYYEK; listed as Homo sapiens) [compound 91]
++ (>20% = ++)	–	93 (KILEEHTNK; listed as Homo sapiens) [compound 93]
+++ (>50 = +++)	–	94 (ATFERVLLR; listed as Homo sapiens) [compound 94]
++ (>20% = ++)	–	95 (QSMYYPLQLK; listed as Homo sapiens) [compound 95]
++ (>20% = ++)	–	98 (LLQPPPLLAR; listed as Homo sapiens) [compound 98]
++ (>20% = ++)	–	99 (KVVDRWNEK; listed as Homo sapiens) [compound 99]
–	“++” (>20% = ++)	429 (REKFIASVI; listed as Homo sapiens) [compound 429]
–	“++” (>20% = ++)	431 (AEQDPDELNKA; listed as Homo sapiens) [compound 431]
–	“+” (>10% = +)	432 (EEQYIAQF; listed as Homo sapiens) [compound 432]
–	“+” (>10% = +)	433 (SDSQVRAF; listed as Homo sapiens) [compound 433]
–	“++” (>20% = ++)	434 (KEAIREHQM; listed as Homo sapiens) [compound 434]
–	“++” (>20% = ++)	435 (REEFVSIDHL; listed as Homo sapiens) [compound 435]
–	“++” (>20% = ++)	436 (REPGDIFSEL; listed as Homo sapiens) [compound 436]
–	“++” (>20% = ++)	437 (TEAVVTNEL; listed as Homo sapiens) [compound 437]
–	“+++” (>50 = +++)	438 (SEVDSPNVL; listed as Homo sapiens) [compound 438]
